Results: patent US20090246175A1

Legend:
[1] = target: C3 convertases (C4b2a and C3bBb); test: cell-based or functional assay
[2] = target: classical and lectin pathway C3 convertase C4b2a (human) (UniProt P0C0L4); test: cell-based or functional assay
UniProt P0C0L4, sequence (P0C0L4 20-1744 limits assumed, chain 1 of 2): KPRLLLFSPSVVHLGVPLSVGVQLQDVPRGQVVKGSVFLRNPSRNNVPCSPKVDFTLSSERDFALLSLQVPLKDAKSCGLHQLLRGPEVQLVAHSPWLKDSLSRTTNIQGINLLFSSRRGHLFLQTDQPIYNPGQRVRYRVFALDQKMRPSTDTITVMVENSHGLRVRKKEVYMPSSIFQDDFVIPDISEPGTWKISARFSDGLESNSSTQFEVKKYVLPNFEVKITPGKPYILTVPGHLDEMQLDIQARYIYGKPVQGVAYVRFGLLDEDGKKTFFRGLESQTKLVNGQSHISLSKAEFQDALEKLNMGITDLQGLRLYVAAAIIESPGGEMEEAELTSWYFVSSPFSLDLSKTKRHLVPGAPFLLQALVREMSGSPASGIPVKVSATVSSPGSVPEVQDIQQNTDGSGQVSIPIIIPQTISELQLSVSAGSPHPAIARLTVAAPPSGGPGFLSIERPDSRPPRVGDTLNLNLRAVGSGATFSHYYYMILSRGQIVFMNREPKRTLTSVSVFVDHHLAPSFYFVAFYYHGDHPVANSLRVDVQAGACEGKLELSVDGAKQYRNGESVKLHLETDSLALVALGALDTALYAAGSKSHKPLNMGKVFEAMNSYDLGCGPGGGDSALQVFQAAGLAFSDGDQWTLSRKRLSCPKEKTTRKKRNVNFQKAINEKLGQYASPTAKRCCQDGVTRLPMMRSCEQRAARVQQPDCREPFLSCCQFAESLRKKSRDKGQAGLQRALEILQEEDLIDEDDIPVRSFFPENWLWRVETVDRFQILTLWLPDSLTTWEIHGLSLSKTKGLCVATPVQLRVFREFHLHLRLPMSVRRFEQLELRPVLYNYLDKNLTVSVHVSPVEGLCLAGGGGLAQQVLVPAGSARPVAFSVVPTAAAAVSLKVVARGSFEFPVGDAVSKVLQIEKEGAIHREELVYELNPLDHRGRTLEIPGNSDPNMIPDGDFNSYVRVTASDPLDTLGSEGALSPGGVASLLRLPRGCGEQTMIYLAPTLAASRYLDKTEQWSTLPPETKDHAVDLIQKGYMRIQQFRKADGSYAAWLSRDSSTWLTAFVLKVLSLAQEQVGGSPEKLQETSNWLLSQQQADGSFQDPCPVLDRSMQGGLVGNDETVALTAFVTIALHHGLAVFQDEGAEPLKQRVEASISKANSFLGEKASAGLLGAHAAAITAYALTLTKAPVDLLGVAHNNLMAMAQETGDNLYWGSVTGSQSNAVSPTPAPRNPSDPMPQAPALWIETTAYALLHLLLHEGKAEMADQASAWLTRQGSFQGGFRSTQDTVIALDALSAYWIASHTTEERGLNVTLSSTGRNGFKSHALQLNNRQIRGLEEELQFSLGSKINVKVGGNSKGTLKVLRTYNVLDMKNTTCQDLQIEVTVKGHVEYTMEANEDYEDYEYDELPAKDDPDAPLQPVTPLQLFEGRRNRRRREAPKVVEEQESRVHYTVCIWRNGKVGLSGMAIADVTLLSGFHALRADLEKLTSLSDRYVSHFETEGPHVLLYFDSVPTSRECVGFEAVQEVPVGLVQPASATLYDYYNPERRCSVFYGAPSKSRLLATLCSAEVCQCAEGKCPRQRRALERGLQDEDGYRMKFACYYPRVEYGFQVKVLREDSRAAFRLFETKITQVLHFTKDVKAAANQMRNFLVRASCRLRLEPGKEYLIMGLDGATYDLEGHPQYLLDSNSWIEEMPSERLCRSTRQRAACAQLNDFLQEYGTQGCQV
UniProt P0C0L4, sequence (P06681 244-752 limits assumed, chain 2 of 2, further chain): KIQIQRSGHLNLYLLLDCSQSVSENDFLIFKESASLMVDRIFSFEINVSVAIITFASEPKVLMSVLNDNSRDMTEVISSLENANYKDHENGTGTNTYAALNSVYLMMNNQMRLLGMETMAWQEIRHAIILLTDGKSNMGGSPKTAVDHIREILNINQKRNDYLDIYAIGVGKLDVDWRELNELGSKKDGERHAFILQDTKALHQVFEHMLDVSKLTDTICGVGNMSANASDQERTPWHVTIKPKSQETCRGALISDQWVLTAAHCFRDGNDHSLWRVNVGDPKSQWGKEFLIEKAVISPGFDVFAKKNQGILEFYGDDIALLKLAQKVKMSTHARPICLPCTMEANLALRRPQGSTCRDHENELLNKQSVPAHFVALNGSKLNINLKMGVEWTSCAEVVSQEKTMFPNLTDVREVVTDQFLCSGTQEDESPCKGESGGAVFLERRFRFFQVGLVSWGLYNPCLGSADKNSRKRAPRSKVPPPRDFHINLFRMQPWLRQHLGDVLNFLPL

Substance	IC50 of phagocytosis of S. aureus by human neutrophils in 10% human sera [1]	C5b-9 and C3b deposition via the CP and LP (ELISA) (% inhibition at 10 µg/ml) [2]
recombinant Staphylococcal Complement Inhibitor (rSCIN)	0.3 µg/mL	50
recombinant SCIN-C (rSCIN-C)	0.12 µg/mL	–
recombinant SCIN-B (rSCIN-B)	0.8 µg/mL	–
